This assay deals with intracellular proteome of ENR+CD and ENR organoids. Briefly: LC-MS/MS TMT proteomics of ENR+CD versus ENR organoids. Type of assay: cell-based, C57BL/6 mice. The settings on record: for Average logFC: ENR+CD versus ENR organoids, sample pairs in aggregate (n=4, 2 technical replicates from two biological donors); for M1-1 Log2 Median Normalized / M1-2 Log2 Median Normalized / M2-1 Log2 Median Normalized / M2-2 Log2 Median Normalized: protein abundance ratio ENR+CD versus ENR organoids, LC-MS/MS TMT proteomics; for M1-1 Log2 Median Normalized: sample pair M1-1; for M1-2 Log2 Median Normalized: sample pair M1-2; for M2-1 Log2 Median Normalized: sample pair M2-1; for M2-2 Log2 Median Normalized: sample pair M2-2; for change: up = enriched in ENR+CD, down = enriched in ENR, FDR<0.05 and log fold change cut-off.

Consider four molecules from patent US11994512B2, “Single-cell genomic methods to generate ex vivo cell systems that recapitulate in vivo biology with improved fidelity” (Massachusetts Institute of Technology, priority 2018, dated 2024).

B1: Q9QYY9 (protein, UniProt Q9QYY9 1-377, looked up)
chain: MGTQGKVIKCKAAIAWKTGSPLCIEEIEVSPPKACEVRIQVIATCVCPTDINATDPKKKALFPVVLGHECAGIVESVGPGVTNFKPGDKVIPFFAPQCKRCKLCLSPLTNLCGKLRNFKYPTIDQELMEDRTSRFTCKGRSIYHFMGVSSFSQYTVVSEANLARVDDEANLERVCLIGCGFSSGYGAAINTAKVTPSSTCAVFGLGCVGLSAIIGCKIAGASRIIAIDINGEKFPKAKALGATDCLNPRELDKPVQDVITELTAGGVDYSLDCAGTAQTLKAAVDCTVLGWGSCTVVGAKVDKMTIPTVDVILGRSINGTFFGGWKSVDSVPNLVSDYKNKKFDLDLLVTHALPFESINDAIDLMKEGKSIRTILTF
modifications: full-length
On to B1, for which the “Average logFC” value was −1.654, the “M1-1 Log2 Median Normalized” value is given as −1.109, the “M1-2 Log2 Median Normalized” value is −2.606 and the “M2-1 Log2 Median Normalized” value is given as −2.0305. In addition, the “M2-2 Log2 Median Normalized” value was −0.87 and the change result is “down”.

B2: Q9WVJ3 (protein, UniProt Q9WVJ3 1-470, looked up)
chain: MRSLFFLFIVHLLALGSGKAVFKNGVSQRTFREIKEEIANYEDVAKAIINLAVYGKYQNRSYERLGLLVDTVGPRLSGSKNLEKAIQIMYQNLQQDGLENVHLEQVRIPHWERGEESAVMLEPRIHKMAILGLGSSIGTPPGGITAEVLVVASFDELQRRASEARGKIIVYNQPYTGYEKTVQYRVQGAVEAAKVGAVASLIQSVASFSIYSPHTGIQKYQDGVPKIPTACITVEDAEMMSRMASRGNKIVIHLEMGAKTYPDTDSFNTVAEITGSMYPEEVVLVSGHLDSWDVGQGALDDGGGAFISWEALSLVKDLGLRPKRTLRLVLWTAEEQGGIGASQYYELHKANISKYSLVMEADSGTFLPTGLQFTGSDKARAIMKEVMNLLQPLNVTKVFSNGEGTDINFWIQAGVPGASLRDDLYKYFFFHHSHGDTMTVMDPKQMNVAAAVWAVVAYVVADMDEMLPRS
modifications: full-length
For the molecule B2, the “Average logFC” value came to 1.351, the “M1-1 Log2 Median Normalized” value is listed as 1.348, the “M1-2 Log2 Median Normalized” value is recorded as 0.221 and the “M2-1 Log2 Median Normalized” value came out at 2.1645. For the same molecule, the “M2-2 Log2 Median Normalized” value came to 1.67 and the change result is recorded as “up”.

B3: Q9R098 (protein, UniProt Q9R098 1-653, looked up)
chain: MGRQAWISSLCPLPRPCPFLLLLLLLVVPRGAQPQAGRNHTEPPGPNVTATPVTPTIPVISGNVSTSTESAPAAETEGPQSERYPPPSSSSPPGGQVLTESGQPCRFPFRYGGRMLHSCTSEGSAYRKWCATTHNYDRDRAWGYCAEVTLPVEGPAILDPCASGPCLNGGTCSSTHDHGSYHCSCPLAFTGKDCGTEKCFDETRYEYFEVGDHWARVSEGHVEQCGCMEGQARCEDTHHTACLSSPCLNGGTCHLIVGTGTSVCTCPLGYAGRFCNIVPTEHCFLGNGTEYRGVASTAASGLSCLAWNSDLLYQELHVDSVAAAVLLGLGPHAYCRNPDKDERPWCYVVKDNALSWEYCRLTACESLARVHSQTPEILAALPESAPAVRPTCGKRHKKRTFLRPRIIGGSSSLPGSHPWLAAIYIGNSFCAGSLVHTCWVVSAAHCFANSPPRDSITVVLGQHFFNRTTDVTQTFGIEKYVPYTLYSVFNPNNHDLVLIRLKKKGERCAVRSQFVQPICLPEAGSSFPTGHKCQIAGWGHMDENVSSYSNSLLEALVPLVADHKCSSPEVYGADISPNMLCAGYFDCKSDACQGDSGGPLVCEKNGVAYLYGIISWGDGCGRLNKPGVYTRVANYVDWINDRIRPPKRPVATS
modifications: full-length
For B3, the “Average logFC” value is recorded as 1.366, the “M1-1 Log2 Median Normalized” value stood at 1.864, the “M1-2 Log2 Median Normalized” value is given as 1.188 and the “M2-1 Log2 Median Normalized” value is on record as 0.7445. Moreover, the “M2-2 Log2 Median Normalized” value is given as 1.669 and the change result is “up”.

B4: Q9R022 (protein, UniProt Q9R022 1-198, looked up)
chain: MDAILNYRPEGSEDYYALLGCDELSSVEQILAEFKIRALECHPDKHPENSKAVETFQKLQKAKEILCNAESRARYDHWRRSQMSMPFEQWEALADSVKTSMHWAVRSKKDLMLEGSGQTFTSSVPNKERSEQRETKKGDPDSNPEKMKQKEPKFPEEGISPQNPDSPGLSDLNCGHLRFRWSGDAPSELLRKFRNYEI
modifications: full-length
Consider B4, for which the “Average logFC” value is 1.154, the “M1-1 Log2 Median Normalized” value came out at 1.573, the “M1-2 Log2 Median Normalized” value came out at 1.212 and the “M2-1 Log2 Median Normalized” value was 0.6885. The “M2-2 Log2 Median Normalized” value was found to be 1.141 and the change result was “up”.
